{
  "source": "patent US20150044169",
  "about": "“METHODS OF […] A […] FAMILY VIRAL INFECTION, COMPOSITIONS FOR […] A […] FAMILY VIRAL INFECTION, AND […] ASSAYS FOR […] COMPOSITIONS FOR […] A […] FAMILY VIRAL INFECTION” (The Board of Trustees of the Leland Stanford Junior …, published 2015)",
  "target": "Gus (beta-glucuronidase) control (UniProt P05804 P05804:1-603)",
  "sequence (P05804 whole entry, one chain of several)": "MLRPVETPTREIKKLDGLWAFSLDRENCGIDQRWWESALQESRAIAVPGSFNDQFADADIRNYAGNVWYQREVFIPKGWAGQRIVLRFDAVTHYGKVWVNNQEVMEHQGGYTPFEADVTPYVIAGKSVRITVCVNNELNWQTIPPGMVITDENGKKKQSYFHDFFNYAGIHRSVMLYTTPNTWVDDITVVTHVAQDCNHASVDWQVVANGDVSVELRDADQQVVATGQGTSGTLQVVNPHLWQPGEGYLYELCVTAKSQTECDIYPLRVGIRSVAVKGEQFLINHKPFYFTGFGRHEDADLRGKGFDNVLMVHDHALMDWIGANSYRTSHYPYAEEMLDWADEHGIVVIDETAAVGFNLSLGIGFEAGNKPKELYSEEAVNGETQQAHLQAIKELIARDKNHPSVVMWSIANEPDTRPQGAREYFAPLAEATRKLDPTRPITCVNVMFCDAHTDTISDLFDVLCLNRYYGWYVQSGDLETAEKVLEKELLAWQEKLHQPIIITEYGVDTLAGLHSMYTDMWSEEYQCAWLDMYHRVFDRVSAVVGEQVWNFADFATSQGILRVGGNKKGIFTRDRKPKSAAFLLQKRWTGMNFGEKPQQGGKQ",
  "test": "MITOMI Gus-his negative control",
  "conditions": "tags: C-terminal 6xHis (Roche Gus-his vector); label: Cy3",
  "from_the_text": "For each experiment, an image was taken after MITOMI and the final PBS wash. This was used to determine the concentration of surface bound protein (FITC channel) as well as surface bound target RNA (Cy3 channel). […] Data from multiple data points were averaged, and their standard deviations calculated. Results were then normalized to 1. Between 10-20 replicates were included for each probe tested. A control protein, Gus-his (Roche) was included in each experiment and subjected to the same analysis. When present, detected signal with Gus-his was used for background subtraction.\nA microarray of Cy3-labeled target RNA sequences was used to program a microfluidic device, and binding of bodiby-labeled proteins expressed on the device to the RNA sequences was assayed. Results represent the ratio of bound RNA (median Cy3 signal) to expressed protein (median bodipy signal). Normalized mean values for 10-20 replicates measured in two independent experiments are shown. Error bars represent standard deviation. The grey bars represent binding of HuR-his and the clear bars that of Gus-his, used as a negative control.",
  "data": [
    {"binder": "AUUUAUUUAUUUAUUUA (ssRNA)", "note": "[4A]", "values": [
      {"measurement": "binding result", "result": "no binding"}
    ]}
  ]
}
